Test results taken from the supplement of paper PMC9170038.

System: MS2 coat protein
Assay: apparent KD of MS2 coat protein; designed switch direction (-1 OFF switch, 1 ON switch): -1; higher = weaker reporter binding
Outline: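 Designed RNA switches with common flanks were made on Illumina chips by stalled E. coli RNA polymerase. Titration with SNAP-549-labelled MS2 coat protein doubled from 0.7 or 1.5 nM up to 3 µM. Apparent KD is each design's median over clusters after curve-fitting normalised fluorescence.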

[1] = Eterna round: R95, input ligand: FMN 200 uM
[2] = Eterna round: R95, input ligand: microRNA oligo, concentration not stated
[3] = Eterna round: R95, input ligand: none
[4] = input ligand: microRNA oligo, concentration not stated

| Sequence | apparent KD of MS2 coat protein [1] [µM] | apparent KD of MS2 coat protein [2] [µM] | apparent KD of MS2 coat protein [3] [µM] | apparent KD of MS2 coat protein (input ligand: FMN 200 uM) [µM] | apparent KD of MS2 coat protein (input ligand: none) [µM] | apparent KD of MS2 coat protein [4] [µM] |
| --- | --- | --- | --- | --- | --- | --- |
| AAAGAAGAGAGAAAAUAACACAUGAGGAUCACCCAUGUGAGAAGUUGAGGGUGAUACAGGCUUUAUGCUCGUCUUAU (puzzle: Sensor v3, turn-off variant 1) | 0.173 | 0.204 | – | – | – | – |
| GAGAAACAUGAGGAUCACCCAUGUGAGGAUAUGUGAGACUAAAGCGCGCAGGCUAAGGACAGAAGGCACAAGGA [Excls1-Ia] (puzzle: Exclusion 1) | 0.0575 | 0.0426 | 0.053 | – | – | – |
| CGCUGGACAGGAUAUGUUCUUGGGCACUUGAGGAUCACCCAAGUCAUCAAGAAAUCAGGCACAGAAGGGUUUAUGG [salish99_ex5_r4_021] (Eterna round: R97, puzzle: Exclusion 5) | – | – | – | 0.0187 | 0.0199 | – |
| CCCGGGUCUGCAGGAUAUUCGAAAGCAGGUCAAAGGUCACAUGAGGAUCACCCAUGUAGUUUAACGAAGAAGGGUGUCGCCCGU [Eternabot solution 38] (Eterna round: R96, puzzle: Exclusion NG 2) | – | – | – | 0.168 | 0.162 | 0.0767 |
| AAUUAUUUUUGAGGAUAUGGUGGUGAAACACCACCAGAAGGCGAGAUAAACAUGAGGAUCACCCAUGUGAGCCUGAUGCUUAUG [Ex NG1 #49] (Eterna round: R96, puzzle: Exclusion NG 1) | – | – | – | 0.0292 | 0.0172 | 0.0126 |
| AUCAUGUUAGGAUAUUACGACGCAGCGGGUAGCCCGUAAAGUAAGAAGGAACAUGAGGAUCACCCAUGUUCAAA [EX4 B.22] (Eterna round: R97, puzzle: Exclusion 4) | – | – | – | 0.0328 | 0.0196 | – |
| AUACUUGCGAAGGAUAUGUAUCAAAGGAACGAAACAGAAGGUUGAACAUGAGGAUCACCCAUGUGUUCCUCGGA [Eternabot (Original) Solution 40] (Eterna round: R97, puzzle: Exclusion 6) | – | – | – | 0.272 | 0.235 | – |
| GAGAAGGUAGGAUAUACGAAGAAAGAGGGUAGUAAUAAUACACAUGAGGAUCACCCAUGUAGAAGGACCAAGAG [Mat - Exclusion 2 - Mod of my Tesla design - D45] (puzzle: Exclusion 2) | 0.0359 | 0.0247 | 0.0217 | – | – | – |
| UAUUAACAAGCUAGGUCCCACAUGAGGAUCACCCAUGUGCUCGUCUUAUAAGGUACUGUGACGAAAGUCACGGUACC [Sensor 3, v1 - 79] (puzzle: Sensor v3, turn-off variant 1) | 0.03 | 0.909 | 0.0315 | – | – | – |
| CAGUACUGAGGAUAUACAUGAGGAUCACCCAUGUGUUCCAGGUAGGAAACUAGCAAAAGUAGAAGGCAGUACUG [salish99_ex3_r3_078] (puzzle: Exclusion 3) | 0.0997 | 0.0202 | 0.0204 | – | – | – |
| CUGAGCAGACGGAGAUCCAACAUGAGGAUCACCCAUGUCUCAUAAGCUUUUUGCUUGUCUUAUCCUCCUCUGUUCUC [Mariedxeor] (puzzle: Sensor v3, turn-off variant 1) | 0.0177 | 0.315 | 0.0144 | – | – | – |
| AGCCACAGAGGAUAUACAUACAUCCAGUGGUUAAGAAUACAACAUGAGGAUCACCCAUGUAGAAGGCUGUGGCA [Omei Ex2 BD B10] (Eterna round: R97, puzzle: Exclusion 2) | – | – | – | 0.394 | 0.152 | – |
| ACUAGCGAAAUGCUCGUCUUAUUUUUGUAGAGGUUCUAAACAUGAGGAUCACCCAUGUAGUGGUUUUUGUGGAGGUA [JR_SV3TOV2_Sub071] (puzzle: Sensor v3, turn-off variant 2) | 0.222 | – | 0.349 | – | – | – |
| GAAUGAGAGCAGGAUAUCUUAAAAAUGUAUAAAAGAGAAGGGCUCACAUGAGGAUCACCCAUGUGGUCCUAGAU [jl-ex6-4.69 jandersonlee mod] (Eterna round: R97, puzzle: Exclusion 6) | – | – | – | 0.572 | 0.0405 | – |
| UUAGUGUAAGGAUAUGCAAACCACGGAAAUAAAACGUGGAGGUAGAAGGUACAUGAGGAUCACCCAUGUUAAAC [Mod of Anonveat 25 - Jieux - Exclusion 4] (Eterna round: R97, puzzle: Exclusion 4) | – | – | – | 0.034 | 0.0202 | – |
| GAAAAGGUAGGAUAUACGAAAAAAAAGUGUAGAAAAAAAACACAUGAGGAUCACCCAUGUAGAAGGACCAAAAG [salish99_ex2_r3_069] (puzzle: Exclusion 2) | 0.027 | 0.0348 | 0.0326 | – | – | – |
| UUUAUGUCAGGAUAUGAUUAGAUCUACUUCGGUAGAUCUAAUCAGAAGGGACAUGAGGAUCACCCAUGUUUUUU [Ex4 - 3 - 16] (puzzle: Exclusion 4) | – | 0.0416 | – | – | – | – |

| Sequence | apparent KD of MS2 coat protein [1] [µM] | apparent KD of MS2 coat protein [2] [µM] | apparent KD of MS2 coat protein [3] [µM] | apparent KD of MS2 coat protein (input ligand: FMN 200 uM) [µM] | apparent KD of MS2 coat protein (input ligand: none) [µM] | apparent KD of MS2 coat protein [4] [µM] |
| --- | --- | --- | --- | --- | --- | --- |
| UCACGUACAGGAUAUACAUGAGGAUCACCCAUGUGCUCGAAGGCACGCCCGAGAUUCUGUAGAAGGGUAUAGCA [Eternabot (L1) Solution 50] (Eterna round: R97, puzzle: Exclusion 3) | – | – | – | 0.0384 | 0.0325 | – |
| GGUGUCGUCAGAAGACAUGAGGAUCACCCAUGUAAAUGCACUGAGGAUAUACGGGCGACCGGCGUGUAGAAGGUAGAGCACGAA [Ladivequ] (Eterna round: R96, puzzle: Exclusion NG 3) | – | – | – | 0.043 | 0.0416 | 0.0245 |
| AGAAGUAGUAGCCGAUCCUACAUGAGGAUCACCCAUGUAGCUAGACGUGCACGCGAUGCUCGUCAGACUACCAGAUG [salish99_TOv1_r3_031] (puzzle: Sensor v3, turn-off variant 1) | 0.131 | 0.12 | 0.155 | – | – | – |
| GAUCGACAUGAGGAUCACCCAUGUCAGGAUAUCGUCACUGGAGCCUCGGCUCCAGUGACGAGAAGGGACAUAAU [E1/13-A2] (Eterna round: R97, puzzle: Exclusion 1) | – | – | – | 0.0468 | 0.0394 | – |
| GGGUAGUGAGGAUAUCUUGGCAAACCCGAACCUGUCAGCCAAGAGAAGGCACUUGAGGAUCACCCAAGUACAGG [Raeratti] (Eterna round: R97, puzzle: Exclusion 4) | – | – | – | 0.0887 | 0.0268 | – |
| GCAGUGCGAGGAUAUACAUGAGGAUCACCCAUGUGAGAAUAAGAAGUGAGGAAGAAAAGUAGAAGGCGCGUUGG [Mat - Exclusion 3 - Mod of Salish D66] (Eterna round: R96, puzzle: Exclusion 3) | – | – | – | 0.103 | 0.0526 | 0.0495 |
| CGGAGCGUGGGUAGGUGCAACAUGAGGAUCACCCAUGUCUCACAAGCUUUUUGCUCAUCUUAUUGUACCUUGGUGCU [Sensor v3, turn-off variant 1 (MOD of JL v.2)] (puzzle: Sensor v3, turn-off variant 1) | 0.13 | 0.0123 | 0.146 | – | – | – |
| AUACCACGAGGAUAUCGUCUAUAAUACAUGAGGAUCACCCAUGUUAUAUCUGUAAUGUUUCGAGAAGGCGUUUGUU [JR_E5_Sub085] (puzzle: Exclusion 5) | – | 0.0213 | – | – | – | – |
| CAUCUGUGAGGAUAUGGUGAGUAGUGCCUGAGCGCUGCUCACCAGAAGGCACAUGAGGAUCACCCAUGUAUGAC [JL-ex4-2.01 denovo] (Eterna round: R96, puzzle: Exclusion 4) | – | – | – | 0.319 | 0.07 | 0.0463 |
| GGUCGACAUGAGGAUCACCCAUGUCAGGAUAUCGUCACUGGAGCCUCGGCUCCAGUGACGAGAAGGGAUAUGAU [E1/17-A2] (Eterna round: R97, puzzle: Exclusion 1) | – | – | – | 0.0419 | 0.0439 | – |
| GUCGUGUUAGGAUAUUGGCCUUUUAGAUGCACUAAGUGAGACGAGAAGGGACAUGAGGAUCACCCAUGUAAUAA [Eternabot (L1) Solution 69] (Eterna round: R97, puzzle: Exclusion 4) | – | – | – | 0.0474 | 0.0364 | – |
| AAGGAUAGAGGAUAUACGUAGAUACAGAUUCAUGUAGAACUACAUGAGGAUCACCCAUGUAGAAGGCUAUCCUA [Fiskers Ex 2 - 6] (Eterna round: R96, puzzle: Exclusion 2) | – | – | – | 0.354 | 0.029 | 0.0248 |
| GCUGCGCGCUGUCGGGCGUCUGGUCUUGGAGGGAUAGACACAUGAGGAUCACCCAUGUUUCGGGUGUUCUUUCUAUA [JR_Sensorv2_tov2_Sub1512] (Eterna round: R96, puzzle: Sensor v2, turn-off variant 2) | – | – | – | 0.187 | 0.183 | 0.118 |
| UGUAGGUCUACCUUGGUGGAUCUGCAUUUUUGCAGGUGUACAUGAGGAUCACCCAUGUCCUCAUUUGCUCGUCUUAU [JL turnoff v2 99.31] (puzzle: Sensor v3, turn-off variant 2) | 0.467 | 0.56 | 0.542 | – | – | – |
| UACAUGAGGAUCACCCAUGUUUUGUCGUGUAUGGUAAUAAUCUAGGAUAUCAAUUUAUUUAUUUAUGAGAAGGAGAAUAAUAAA [JMF's solution 4] (Eterna round: R96, puzzle: Exclusion NG 3) | – | – | – | 0.0671 | 0.0617 | 0.0559 |
| AUUGUAGUUGUGAGGAUAUCGUUGAUUUUUUGAAACGAGAAGGCACAUGAGGAUCACCCAUGUAAGUUGUAGGU [JR_BMOE4_Sub055] (puzzle: Brourd's mod of Exclusion 4) | – | 0.0776 | – | – | – | – |
